In patent US20180021429A1, “ANTICANCER AGENTS OR ANTIMETASTATIC AGENTS USING FSTL1 AND COMBINATION DRUG THEREOF” (PHARMA FOODS INTERNATIONAL CO., LTD., priority 2015, published 2018):
Changes are numbered by the printed parent chain. Entries after “also recorded” stand apart in the source; their conditions may differ. Values belong to the molecule of their own block, whether it stands above or below them.

Key:
[1] = biological target: T1, FSTL1 (Homo sapiens, UniProt Q12841); assay: Inhibition of activation of tumor cells by FSTL1, RANKL- and CCR2-positive cells in human pancreatic cancer cell line Panc1 (Examples 5, 7, 9, 10, 11); assay type: cell-based; set-up: purchased R&D Systems, Inc. 1694-FN-050; conditions: FSTL1 50 ng/mL, antibody 10 μg/mL, 3 days
T1 sequence (Q12841 21-308): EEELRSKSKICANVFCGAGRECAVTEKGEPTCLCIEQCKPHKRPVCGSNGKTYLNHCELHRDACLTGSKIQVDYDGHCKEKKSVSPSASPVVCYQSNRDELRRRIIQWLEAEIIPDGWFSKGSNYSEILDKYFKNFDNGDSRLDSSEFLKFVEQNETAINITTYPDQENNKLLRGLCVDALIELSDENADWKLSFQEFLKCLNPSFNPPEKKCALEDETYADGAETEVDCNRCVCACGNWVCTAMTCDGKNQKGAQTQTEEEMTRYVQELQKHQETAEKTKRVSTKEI
Protocol: It is known that tumor cells activated by stimulation with FSTL1 highly express molecule groups promoting bone metastasis and increase metastatic invasive capacity (Cancer Research 73: 6185, 2013). Thus, 2×10^7 cells/well of a human pancreatic cancer cell line Panc1 were suspended in 1 mL/well of D-MEM medium (GIBCO/Thermo Fisher Scientific Inc. Cat. No. C11885500BT) containing 10% fetal bovine serum, supplemented with 50 ng/mL (final concentration) of FSTL1 (R&D Systems, Inc.) and 10 μg/mL of the anti-FSTL1 antibody (#5-2, #5-8, #5-10, #5-43, #6-55, or #7-34) or its isotype mouse IgG (anti-DNP antibody) as a control antibody “Control”, and cultured under stimulation (6-well plate). 3 days thereafter, the number of cells was counted while the cells were stained with a PE-labeled anti-RANKL antibody (eBioscience Cat. No. 12-6619) and a PE-labeled anti-CCR2 antibody (R&D Systems, Inc. Cat. No. FAB151P) in order to examine the expression of markers indicating bone metastatic properties, and the contents of RANKL-positive cells and CCR2-positive cells were analyzed by flow cytometry using FACScan (Becton, Dickinson and Company) to calculate the numbers of cells per culture. […] Therefore, in Examples below, judgment was made with the number of cells as an index.
(§1) In the same way as in Example 5, a human pancreatic cancer cell line Panc1 was supplemented with 50 ng/mL (final concentration) of FSTL1 (R&D Systems, Inc.) and 10 μg/mL of the anti-FSTL1 antibody (the same clones as in Example 6) or a control antibody and cultured under stimulation. 3 days thereafter, the number of cells was counted while the cells were stained with a PE-labeled anti-RANKL antibody and a PE-labeled anti-CCR2 antibody, and the contents of RANKL-positive cells and CCR2-positive cells were analyzed by flow cytometry using FACScan (Becton, Dickinson and Company) to calculate the numbers of cells per culture (FIG. 67B).
as §1, with “20” for “50”, “FSTL1” for “FSTL1 (R&D Systems, Inc.)”, “(#5-2, #5-8, or #6-55)” for “(the same clones as in Example 6)”, “68B).” for “67B).”
as §1, with “FSTL1” for “FSTL1 (R&D Systems, Inc.)”, “(#5-2, #5-3, #6-55, #7-34, #8-1, #8-4, #8-7, or #8-8)” for “(the same clones as in Example 6)”, “culture.” for “culture (FIG. 67B).”
as §1, with “FSTL1” for “FSTL1 (R&D Systems, Inc.)”, “(#6-55)” for “(the same clones as in Example 6)”, “culture.” for “culture (FIG. 67B).”

[2] = biological target: T1, FSTL1; assay: Inhibition of MSC induction by FSTL1 in mouse bone marrow cells, CD45-negative cells (Examples 6, 8, 12); assay type: cell-based; set-up: purchased R&D Systems, Inc. 1694-FN-050; conditions: antibody 10 μg/mL
Protocol: Mouse bone marrow cells prepared in the same way as in Example 4 were supplemented with 50 ng/mL (final concentration) of FSTL1 and 10 μg/mL of the anti-FSTL1 antibody (#5-2, #5-3, #5-8, #5-10, 45-43, #6-55, or #7-34) or a control antibody anti-DNP antibody and cultured under stimulation. 11 days thereafter, the number of cells was counted while the cells were stained with a PE-Cy5-labeled anti-CD45 antibody (BD Pharmingen/Becton, Dickinson and Company, Cat. No. 555484), and the content of CD45− negative cells reported to generally contain MSCs at a high rate was analyzed by flow cytometry using FACScan to calculate the percentage and number of MSCs per culture (FIG. 67A).
(§2) Mouse bone marrow cells prepared in the same way as in Example 4 were supplemented with 20 ng/mL (final concentration) of FSTL1 and 10 μg/mL of the anti-FSTL1 antibody (#5-2, #5-3, #5-8, #5-10, #5-43, #6-55, #8-1, #8-4, #8-7, and #8-8) or a control antibody anti-DNP antibody and cultured under stimulation. 8 days thereafter, the number of cells was counted while the cells were stained with a PE-Cy5-labeled anti-CD45 antibody, and the content of CD45− negative cells was analyzed by flow cytometry using FACScan to calculate the percentage and number of MSCs per culture (FIG. 68A).
as §2, with “(#5-2,” for “(#5-2, #5-3,”, “#5-8,” for “#5-8, #5-10, #5-43,”, “#6-55, #7-34,” for “#6-55,”, “#8-7, or” for “#8-7, and”, “(FIG. 69).” for “(FIG. 68A).”

[3] = Example 10, including newly obtained clones
[4] = Example 8, FSTL1 20 ng/mL, 8 days
[5] = Example 12, FSTL1 20 ng/mL, 8 days

- inhibitory activity against the expansion of CD45-negative cells by FSTL1 [2, 4]: exhibited inhibitory activity
B1: #8-4: chicken-mouse chimeric anti-FSTL1 antibody clone; variable regions SEQ ID NO: 795 (light), 797 (heavy) (antibody, V domains shown)
VH: AVTLDESGGGLQTPGGGLSLVCKGSGFTLSSFNMFWVRQAPGKGLEWVAGVGKDGGTAYGAAVDGRATISRDSGQSTVRLQLNNLRAEDTGTYFCAKAAGGCSYSWCGAYVGDLDAWGHGTEVIVSS
VL: ASSQPSSVSANPGETVKITCSGGSGYYYGWYQQKSPGSAPVTVIYNNDNKPSDIPSRFSGSKSGSTGTLTITGVQVEDEAVYFCGGYDNSGTGIFGAGTTLTVL
modifications: mouse constant regions
- inhibitory activity against the expansion of RANKL-positive cells and CCR2-positive cells [1, 3]: higher inhibitory activity; also recorded: high inhibitory activity

- inhibitory activity against the expansion of RANKL-positive cells and CCR2-positive cells ([1]; Example 7): higher inhibitory activity
B2: #5-8: chicken-mouse chimeric anti-FSTL1 antibody clone; variable regions SEQ ID NO: 771 (light), 773 (heavy) (antibody, V domains shown)
VH: AVTLDESGGGLQTPGGGLSLVCKGSGFTFSSFNMFWVRQAPGKGLEWVAGIGKDGVPKYGTAVDGRATISKDNGQSTMRLQLNNLRAEDTGTYFCAKAAGGCSYDWCGIYTGDIDTWGHGTEVIVSS
VL: ASTQPSSVSANPGEAVKITCSGGSGSYYGWYQQKSPGSAPVTVIYNNNQRPSDIPSRFSGSKSGSTATLTITGVQAEDEAVYFCGGYDSSTGHGGIFGAGTTLTVL
modifications: mouse constant regions
- inhibitory activity against the expansion of CD45-negative cells by FSTL1 ([2]; Example 6, FSTL1 50 ng/mL, 11 days): higher inhibitory activity and substantially completely inhibited the action of FSTL1
- inhibitory activity against the expansion of CD45-negative cells by FSTL1 [2, 4]: Inhibitory activity was confirmed; also recorded: exhibited inhibitory activity

B3: #5-2: chicken-mouse chimeric anti-FSTL1 antibody clone; variable regions SEQ ID NO: 763 (light), 765 (heavy) (antibody, V domains shown)
VH: B1 VH with L29F, A58G, R71K, S73N, V78L, F94Y, S105G, A109S, L114I
VL: B2 VL
modifications: mouse constant regions
- inhibitory activity against the expansion of RANKL-positive cells and CCR2-positive cells [1, 3]: higher inhibitory activity; also recorded: high inhibitory activity
- inhibitory activity against the expansion of CD45-negative cells by FSTL1 [2, 5]: stronger inhibitory activity was confirmed in the order of clone #7-34, #5-2, 46-55, and #8-7; also recorded: higher inhibitory activity was confirmed in the order of #7-34, #5-2, #6-55, and #8-7; also recorded: stronger inhibitory activity was confirmed in the order of clone #7-34, #5-2, 96-55, and #8-7

B4: #8-7: chicken-mouse chimeric anti-FSTL1 antibody clone; variable regions SEQ ID NO: 799 (light), 801 (heavy) (antibody, V domains shown)
VH: B2 VH with T61A, M78L, T111A
VL: B2 VL
modifications: mouse constant regions
- inhibitory activity against the expansion of RANKL-positive cells and CCR2-positive cells [1, 3]: higher inhibitory activity; also recorded: high inhibitory activity
- inhibitory activity against the expansion of CD45-negative cells by FSTL1 [2, 5]: stronger inhibitory activity was confirmed in the order of clone #7-34, #5-2, 46-55, and #8-7; also recorded: higher inhibitory activity was confirmed in the order of #7-34, #5-2, #6-55, and #8-7; also recorded: stronger inhibitory activity was confirmed in the order of clone #7-34, #5-2, 96-55, and #8-7
